# Test results: the nanobody polyreactivity screen of Harvey et al. (2022)
# Experiment: yeast display, Sf9 membrane polyspecificity reagent, FACS + sequencing; frameworks hold sequencing errors
# How it was run: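 Nanobodies from a synthetic yeast display library (Saccharomyces cerevisiae BJ5465), induced 36–48 hours with galactose, were stained 1 hour at 4 °C with 10% biotinylated, detergent-solubilized Sf9 membrane reagent, enriched on streptavidin microbeads, then FACS-sorted. Anti-HA (expression) and streptavidin (reagent binding) fluorescence set low and high (top ~1%) gates. Polyreactivity labels come from the gate of origin. Genes were colony-PCR amplified, MiSeq 2 × 250 sequenced and filtered by CDR length.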
row,Sequence,polyreactivity (PSR sort gate)
1,QVQLVESGGGLVQAGGSLRLSCAASGSILVSNDMGWYRQAPGKERELVAAISWSGGSTYYADSVKGRFTISRDNAKNTVYLQMNSLKPEDTAVYYCATGVALRYGYWGQGTQVTVSS,low polyreactivity
2,QVQLVESGGGLVQAGGSLRLSCAASGSILVTYAMGWYRQAPGKERELVAAISRGGRTYYADSVKGRFTISRDNAKNTVYLQMNSLKPEDTAVYYCNADRVTFSWPVNYYWVDYWGQGTQVTVSS,high polyreactivity
3,QVQLVESGGGLVQAGGSLRLSCAASGSILWENAKGWYRQAPGKERELVATISVSGGGTYYADSVKGRFTISRDNAKNTVYLQMNSLKPEDTAVYYCNARYGNESQGWEDYWGQGTQVTVSS,low polyreactivity
4,QVQLVESGGGLVQAGGSLRLSCAASGSILWLYAMGWYRQAPGKERELVAAISGSGRTNYADSVKGRFTISRDNAKNTVYLQMNSQKPEDTAVYYCARVHGTSESKYYYWGQGTQVTVSL,low polyreactivity
5,QVQLVESGGGLVQAGGSLRLSCAASGSILWLYVMGWYRQAPGKERELVATITSSGGSTYYADSVKGRFTISRDNAKNTVYLQMNSLKPEDTAVYYCAAQTYYSYDYWGQGTQVTVSS,low polyreactivity
6,QVQLVESGGGLVQAGGSLRLSCAASGSILYNNAMGWYRQAPGKERELVAAIDLSTGSTYYADSVKGRFTISRDNAKNTVYLQMNSLKPEDSSVYYCAAGKPLGSSTKYRPYDYWGQGTQVTVSS,low polyreactivity
7,QVQLVESGGGLVQAGGSLRLSCAASGSILYSYTMGWYRQAPGKERELVAAINRGGRTNYADSVKGRFTISRDNAKNTVYLQMNSLKPEDTAVYYCNTGIYAWSWRRAMDYWGQGTQVTVSS,high polyreactivity
8,QVQLVESGGGLVQAGGSLRLSCAASGSILYVNAMGWYTQEPGKERELVAAITVSGGSTYYADSVKGRFTISRDNAKNTVYLQMNSLKPEDTAVFYCAAPALGNYFYGYDYCGQGTQVTVSS,low polyreactivity
9,QVQLVESGGGLVQAGGSLRLSCAASGSILYVYAMGWYRQAPGKERELVATITGRVVSTNYADSVKGRFTISRDNAKNTVYLQMNSLKPEDTAVYYCAARTRRRRGEYDYWGQGTQVTVSS,high polyreactivity
10,QVQLVESGGGLVQAGGSLRLSCAASGSILYVYAMGWYRQAPGKERELVATITGRVVSTNYADSVKGRLTISRDNAKNTVYLQMNSLKPEDTAVYYCAARTRRRRGEYDYWGQGTQVTVSS,high polyreactivity
11,QVQLVESGGGLVQAGGSLRLSCAASGSINNRNAMGWYIQAPGKERELVAAITRRGGSTYYADSVKGRFTISRDNAKNTVYLQMNSLKPEETAVYYFNAVKGLSSWSYEYWGQGSQVTVSS,high polyreactivity
12,QVQLVESGGGLVQAGGSLRLSCAASGSIQARYAMGWYRQAPGKERELVASITTSGDSTYYADSVKGRFTISRDNAKNTVYLQMNSLKPEDTAVSYCARRRWGWGYQHFPYYYWGQGTQVTVSS,high polyreactivity
13,QVQLVESGGGLVQAGGSLRLSCAASGSIQTRNAMGWYRQAPGKERELVAAITGSGGRTYYADSVKGRFTISRDNAKNTVYLQMNSLKPEDTAVYYCATRYGREDYWGQVTQVTVSS,high polyreactivity
14,QVQLVESGGGLVQAGGSLRLSCAASGSIQYYAMGWYRQEPGKERELVAAIRFSGGRTYYADSVKGRFTISRDNAKNTVYLQMNSLKPEETAVYYCAAYRSPRRSGAPSQGKFDYWGQVTQVTVSS,high polyreactivity
15,QVQLVESGGGLVQAGGSLRLSCAASGSIRSYAMGWYRQSPGKERELVAAITRSGGSTYYADSVKGRFTISRDNAKNSVYLQMNSLKPEDTAVYYCAAEVRGKSRSTRVSYRYDYWGQGTQVTVSS,high polyreactivity
16,QVQLVESGGGLVQAGGSLRLSCAASGSIRYYVKGWYRQAPGKERELVAGINWSGGSTYYADSVKGRFTISRDNAKNTVYLQMNSLKPEDTAVYYCAARFVGVRDGYYYWGQGTQVTLSS,high polyreactivity
17,QVQLVESGGGLVQAGGSLRLSCAASGSISAPNAMGWYRQAPGKERALVATINSGGRTNYADSVKGRFTISRDNAKNTVYFQMNSLKPEDTAVYYCNTVVRGAYTYGDVSKYDYWGHGTQVTVSS,low polyreactivity
18,QVQLVESGGGLVQAGGSLRLSCAASGSISDSYAMGWYRPAPGKERELVAAITSGDSTYYADSVKGRFTISRDNAKNTVYLQMNSLKPEDTAVYYCAKRVSRVLGYGFTDWSEYDYWGQGTQVTVSS,low polyreactivity
19,QVQLVESGGGLVQAGGSLRLSCAASGSISDSYAMGWYRQAPGKERELVAAITSGDSTYYADSVKGRFTISRDNAKNTVYLQMNSLKPEDTAFYYCAKRVSRVRGYGFTDWSEYDYWGQGTQVTVSS,low polyreactivity
20,QVQLVESGGGLVQAGGSLRLSCAASGSISFYYGIGWYRHAPGKERELVAALNNTGSTNYADSVKGRFTISRDNAKNTVYLQMNSLKPEDTAVYYCNAEQWQSSEYGEWSKRDYWGHGTQVTVSS,low polyreactivity
21,QVQLVESGGGLVQAGGSLRLSCAASGSISGWYAMGWYRHAPGKERELVADISSIDGSTYYADSVKGRFTISRDNEKNTVYLQMNSLKPEDTSVYYCSADRGFYYEYDYWGQGTQVTVSS,low polyreactivity
22,QVQLVESGGGLVQAGGSLRLSCAASGSISGYNAMGWYRQAPGKERELVAVITTDGSTNYADSVKGRFTISRDNAKNTVYLQMNSLKPEDTAVYYCNTDDGWRLLWEYDYWGQGTQVTVSS,low polyreactivity

row,Sequence,polyreactivity (PSR sort gate)
1,QVQLVESGGGLVQAGGSLRLSCAASGSISGYYAMGWNRQAPGKERELVASIRYTGARTYYADSVKGRFTISRDNAKNTVYLQMNSLKPEDTAVYYCAADVKRDRVWGGDYWGQGTQVTVSS,low polyreactivity
2,QVQLVESGGGLVQAGGSLRLSCAASGSISGYYAMGWSRQAPGKERELVASIRYTGARTYYADSVKGRFTISRDNAKNTVYLQMNSLKPEDTAVYYCNAYTRYPFYFVTSKYDYWGQGTQVTVSS,low polyreactivity
3,QVQLVESGGGLVQAGGSLRLSCAASGSISGYYAMGWYRQAPGKERELVASIRYTGARTYYADSVMGRFTISRDTAKNNVYLQMNSLKPEDTAVYYCAADVKRDRVWGGDYWGQGTQVTVSS,low polyreactivity
4,QVQLVESGGGLVQAGGSLRLSCAASGSISIRNAMGWYRQAPGKERELVAAISRGGSTYYADSVKGRFTISRDNAKNTVYLQMNSLKPEDTAVYYCATDGGRYYRGREYAFKYYYWGQGTQVTVSS,high polyreactivity
5,QVQLVESGGGLVQAGGSLRLSCAASGSISKINAMGWYRHAPGKERELVAAINTGDSTYYADSVKGRFTISRDNAKNTVYLQMNSLKPEDTAVYYCAAEGAPTGYDYWGQGTQVTVSS,low polyreactivity
6,QVQLVESGGGLVQAGGSLRLSCAASGSISKINAMGWYRQAPGKERELVAAINTGDSTYYADSVKGRFTISRDNAKNTVYLQMNSLKPEDTAVYYCAAEGSPNGYDYWGQGTQVTVSS,low polyreactivity
7,QVQLVESGGGLVQAGGSLRLSCAASGSISLYAMGWYRQAPGKERELVAAITKSGGSTYYADSVKGRFTISRDNAKNTVYLQMNSLKPEDTAVYYCNRGGGERKYNYWGQGTQVTGSS,high polyreactivity
8,QVQLVESGGGLVQAGGSLRLSCAASGSISNYYGMGWYRQAPGKERELVAAITWGGGRTNYADSVKGRFTISRDNAKNTVYLQMNSLKPEDTAVYYCAKVSVTHRYGAGGDYWGQGTQVTVSS,low polyreactivity
9,QVQLVESGGGLVQAGGSLRLSCAASGSISQGNAMGWYRQAPGKERELVAAIRWTSGRTYYADSVKGRFTISRDNAKNTVSLEINSLKPEDPAVYYCAAYYVYYTPTLFDRDYWGQGTQVTVSS,low polyreactivity
10,QVQLVESGGGLVQAGGSLRLSCAASGSISRYYAMGWYRQAPRKERELVAAISSNGGSTYYADSVKGRFTISRDNAKNSVYLQMYSLKPEDTAVYYCNAFYVGYIRYWTNKLVDYWGQGTQVTVSS,high polyreactivity
11,QVQLVESGGGLVQAGGSLRLSCAASGSISSFYAMGWYRQAPGKERELVAGITSGGSTNYADSVKGRFTISRDNAKNTVYLQMNSLKPEDTAVDYCAAVYKGAGTHFDVFVKEFDYWGQGTQVTVSS,low polyreactivity
12,QVQLVESGGGLVQAGGSLRLSCAASGSISSKNAMGWYRQAPGKEREFVAVISGTGGSTYYADSVKGRFTISRDNAKNTVYLQMNSLKPEDTAFYYCAAAASSIVSYGYTWTYGYWGQGTQVTVSS,low polyreactivity
13,QVQLVESGGGLVQAGGSLRLSCAASGSISSSYAMGWYRQAPGKERELVAAIDGSDGTTYYADSVKGRYTISRDNAKNTVYLQMNSLKPEDTAFYYCAAEPLGYHAGATRYDYWGQGTQVTVSS,high polyreactivity
14,QVQLVESGGGLVQAGGSLRLSCAASGSISSVNAMGWYREAPGKERELVATISSGGSTYADSVKGRFTISRDNAKNTVYLQMNSLKPEDTAVYYCATYFVAYTFYYRWYRSYASFYYWGQGTQVTVSS,low polyreactivity
15,QVQLVESGGGLVQAGGSLRLSCAASGSISSYYAMGWYRQATGKERELVAAISKSGGSTYYADSVKGRFTISRDNAKNTVYLQMNSLKPEDSAVYYCAARDYGWRYYRKYDYWGQGTQVTVSS,high polyreactivity
16,QVQLVESGGGLVQAGGSLRLSCAASGSISTWYAMGWYRQATGKERELVAAINSGDSTYYADSVKGRFTISRDNAKNTVYLQMNSLKPEDTAVYYCAASSYSSKPFDYWGQGTQVTVSS,high polyreactivity
17,QVQLVESGGGLVQAGGSLRLSCAASGSISTYYAMGWYRQAPGKERELVAAISKSGGSTYYADSVKGRFTISRDNAKYTVYLQMNSLKPEDTEVYYCAARYKGRAFWMDYWGQGTQVTVSS,high polyreactivity
18,QVQLVESGGGLVQAGGSLRLSCAASGSISVWYVMGWYRQAPGKERELVAAITRSGGSTFYADSVKGRFTISRDNAKNTVYLQMNSLKPEDTAVYYCAADGGVAWGYGYWGQGTQVTVSS,low polyreactivity
19,QVQLVESGGGLVQAGGSLRLSCAASGSISVYNAMGWYRQAPGTERELVAAISWSGGRTSYADSVKGRFTISRDNAKNTVYLQMNSLKPEDTAVYYCAADELTVLWDEDYWGQGTQVTVSS,low polyreactivity
20,QVQLVESGGGLVQAGGSLRLSCAASGSISWLYAMGWYRQAPGKEREFVAAISESGDTYYADSVKGRFTISRDNAKNTVYLQMNSLKPEDTAVYYCAATRPDGVTYDYWGQGTQVTVSS,low polyreactivity
21,QVQLVESGGGLVQAGGSLRLSCAASGSISWVYAMGWYRQAPGKERELVADITDSGDSTYYADSVKGRFTISRDNAKNTVYLQMNSLKPEDTAVYYCAADGWRHYYIYWPYNYWGQGTQVTVSS,low polyreactivity
